Data as given in article PMC6251713 (Immunity, 2018).
Substitutions are numbered along the chain they refer to. Names and notes keep the numbering of the source.

T1: maltose binding protein (MBP)-tagged IFIT1 (human, UniProt P09914-1 1-478)
T1 sequence (looked up): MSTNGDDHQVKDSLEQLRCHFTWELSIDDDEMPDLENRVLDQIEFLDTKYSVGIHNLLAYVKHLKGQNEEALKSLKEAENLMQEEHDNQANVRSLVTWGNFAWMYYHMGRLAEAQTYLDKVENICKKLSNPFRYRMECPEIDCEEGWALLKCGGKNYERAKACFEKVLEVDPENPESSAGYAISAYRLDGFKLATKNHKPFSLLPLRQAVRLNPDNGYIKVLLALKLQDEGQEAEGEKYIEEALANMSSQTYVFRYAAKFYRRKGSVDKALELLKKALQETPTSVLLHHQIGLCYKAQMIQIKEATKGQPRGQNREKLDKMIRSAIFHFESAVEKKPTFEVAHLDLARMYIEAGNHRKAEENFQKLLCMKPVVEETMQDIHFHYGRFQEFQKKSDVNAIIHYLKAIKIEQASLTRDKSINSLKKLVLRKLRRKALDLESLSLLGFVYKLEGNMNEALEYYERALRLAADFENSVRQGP

B1: IFIT3 403–490 (IFIT3CTD) (domain or fragment, human, UniProt O14879 403-490, looked up)
chain: QNVSENLLPQNAPNYWYLQGLIHKQNGDLLQAAKCYEKELGRLLRDAPSGIGSIFLSASELEDGSEEMGQGAVSSSPRELLSNSEQLN
B2: human IFIT3 (natural protein, UniProt O14879 1-490, looked up)
chain: MSEVTKNSLEKILPQLKCHFTWNLFKEDSVSRDLEDRVCNQIEFLNTEFKATMYNLLAYIKHLDGNNEAALECLRQAEELIQQEHADQAEIRSLVTWGNYAWVYYHLGRLSDAQIYVDKVKQTCKKFSNPYSIEYSELDCEEGWTQLKCGRNERAKVCFEKALEEKPNNPEFSSGLAIAMYHLDNHPEKQFSTDVLKQAIELSPDNQYVKVLLGLKLQKMNKEAEGEQFVEEALEKSPCQTDVLRSAAKFYRRKGDLDKAIELFQRVLESTPNNGYLYHQIGCCYKAKVRQMQNTGESEASGNKEMIEALKQYAMDYSNKALEKGLNPLNAYSDLAEFLETECYQTPFNKEVPDAEKQQSHQRYCNLQKYNGKSEDTAVQHGLEGLSISKKSTDKEEIKDQPQNVSENLLPQNAPNYWYLQGLIHKQNGDLLQAAKCYEKELGRLLRDAPSGIGSIFLSASELEDGSEEMGQGAVSSSPRELLSNSEQLN
B3: IFIT1 RNA binding mutant (R38A and K151A) (natural protein, human, UniProt P09914-1 1-478, looked up)
chain: T1 sequence (looked up) with R38A, K151A
B4: human IFIT1 (natural protein, UniProt P09914-1 1-478, looked up)
chain: T1 sequence (looked up)
B5: chimeric construct Ifit3-IFIT3CTD (other, mouse | human, UniProt Q64345 1-403, looked up)
chain: MSEVNRESLEAILPQLKCHFTWNLFREGSMSSHMEDRVCNQVEHLNSEEKATMYDLLAYIKHLDGESKAALECLGQAEDLRKSEHNDQSEIRRLVTWGNYAWIYYHMGRLSEAQAYVDKVRQVCQKFANPYSMECPELECEEGWTRLKCGRNERAKMCFEKALEEKPKDPECSSGMAIAMFRLEEKPEKQFSVDALKQAMELNPQNQYLKVLLALKLLRMGEEAEGERLIKDALGKAPNQTDVLQKAAQFYKKKGNLDRAIELLGKALRSTVNNSPLYSLVMCRYREILEQLQNKGDADSSERRQRMAELRRLTMEFMQKTLQRRRSPLNSYSDLIDFPEVERCYQMVISKESPDVEEEDLYERYCNLQEYHRKSEDLAALECLLQFPRNERSIEKEEVKEQTQNVSENLLPQNAPNYWYLQGLIHKQNGDLLQAAKCYEKELGRLLRDAPSGIGSIFLSASELEDGSEEMGQGAVSSSPRELLSNSEQLN

What was measured:
[1] = molecular target: B4; test: ITC
[2] = molecular target: B2; test: ITC
[3] = molecular target: T1, maltose binding protein (MBP)-tagged …; test: pull-down

Row | Binder | dH [1] [cal/mol] | stoichiometry N [1] | Kd [2] [nM] | also measured
1 | B1 | -17000 | 0.97 ± 0.03 | – | Kd [1]: 1.4 ± 3.1 nM
2 | B2 | -13000 | 0.93 ± 0.01 | – | –
3 | B3 | – | – | 2.1 ± 6 | –
4 | B4 | – | – | 1.5 ± 2 | –
5 | B5 | – | – | – | binding result [3]: binds
